Reference: PMC3500661 (Biochemistry, 2012)

Molecular target: the molecule itself
Assay: NMR solution structure

B1: Mycobacterium tuberculosis NmtR (apo-state, homodimer) (natural protein)
chain: GHGVEGRNRPSAPLDSQAAAQVASTLQALATPSRLMILTQLRNGPLPVTDLAEAIGMEQSAVSHQLRVLRNLGLVVGDRAGRSIVYSLYDTHVAQLLDEAIYHSEHLHLGLSDRHPSAG
Does B1 bind?
Result: binds
